# In patent US20240132578A1 (published 2024):
# Assays:
# recombinant gp41HxB2 = target: T1, recombinant gp41HxB2 (HIV-1 clone HxB2, UniProt P04578 541-682); experiment: ELISA, initial screen of B cell culture supernatants
# T1 construct: domain: gp41
# [1] = target: HIV-1 IAVI_C22 envelope protein (Env) on pseudotyped virus (HIV-1 strain IAVI C22); experiment: cell-based or functional assay
# [2] = target: HIV-1 SF162 envelope protein (Env) on pseudotyped virus (HIV-1 isolate SF162, UniProt P19550 32-847); experiment: cell-based or functional assay
# [3] = target: HIV-1 94UG103 envelope protein (Env) on pseudotyped virus (HIV-1 strain 94UG103); experiment: cell-based or functional assay
# [4] = target: HIV-1 JR-CSF envelope protein (Env) on pseudotyped virus (HIV-1 isolate JR-CSF, UniProt P20871 32-848); experiment: cell-based or functional assay
# [5] = target: HIV-1 92TH021 envelope protein (Env) on pseudotyped virus (HIV-1 strain 92TH021); experiment: cell-based or functional assay
# [6] = target: aMLV envelope on pseudotyped virus (negative control) (aMLV); experiment: cell-based or functional assay
# [7] = target: HIV-1 92BR020 envelope protein (Env) on pseudotyped virus (HIV-1 strain 92BR020); experiment: cell-based or functional assay
# [8] = target: HIV-1 93IN905 envelope protein (Env) on pseudotyped virus (HIV-1 strain 93IN905); experiment: cell-based or functional assay
# [9] = target: HIV-1 NL43 envelope protein (Env) on pseudotyped virus (HIV-1 strain NL43); experiment: cell-based or functional assay
binder,measurement,setting,value
"1496_C09 (PG9) (TCN-109) (antibody, V domains shown) VH: QRLVESGGGVVQPGSSLRLSCAASGFDFSRQGMHWVRQAPGQGLEWVAFIKYDGSEKYHADSVWGRLSISRDNSKDTLYLQMNSLRVEDTATYFCVREAGGPDYRNGYNYYDFYDGYYNYHYMDVWGKGTTVTVSS VL: QSALTQPASVSGSPGQSITISCNGTSNDVGGYESVSWYQQHPGKAPKVVIYDVSKRPSGVSNRFSGSKSGNTASLTISGLQAEDEGDYYCKSLTSTRRRVFGTGTKLTVLG",binding result,recombinant gp41HxB2,no binding
"1460_G14 (PGG14) (antibody, human IgG1, kappa, V domains shown) VH: QVLLVQSGTEVKKPGSSVKVSCQASGGAFSSYAFSWVRQAPGQGLEWMGMITPVFGETKYAPRFQGRLTLTAEESLSTTYMELRSLTSDDTAFYYCTRDRRVVPMATDNWLDPWGQGTLVTVSS VL: DIQLTQSPSSLSASVGDRVTVTCRASQTIHTYLNWYQQIPGKAPKLLIYGASTLQSGVPSRFSGSGSGTDFTLTINSLQPEDFATYYCQQSYSTPRTFGQGTRLDIKR","IC50, Neutralizing Antibody Assay, Virus/Ab Incubation 1 hour",[1],> 50 mg/L
same,"IC50, Neutralizing Antibody Assay, Virus/Ab Incubation 18 hour",[1],> 50 mg/L
same,"IC50, Neutralizing Antibody Assay, Virus/Ab Incubation 1 hour",[2],0.179 mg/L
same,"IC50, Neutralizing Antibody Assay, Virus/Ab Incubation 18 hour",[2],0.0573 mg/L
same,"IC50, Neutralizing Antibody Assay, Virus/Ab Incubation 1 hour",[3],> 50 mg/L
same,"IC50, Neutralizing Antibody Assay, Virus/Ab Incubation 18 hour",[3],> 50 mg/L
same,"IC50, Neutralizing Antibody Assay, Virus/Ab Incubation 1 hour",[4],> 50 mg/L
same,"IC50, Neutralizing Antibody Assay, Virus/Ab Incubation 18 hour",[4],> 50 mg/L
same,"IC50, Neutralizing Antibody Assay, Virus/Ab Incubation 1 hour",[5],> 50 mg/L
same,"IC50, Neutralizing Antibody Assay, Virus/Ab Incubation 18 hour",[5],> 50 mg/L
same,"IC50, Neutralizing Antibody Assay, Virus/Ab Incubation 1 hour",[6],> 50 mg/L
same,"IC50, Neutralizing Antibody Assay, Virus/Ab Incubation 18 hour",[6],> 50 mg/L
same,"IC50, Neutralizing Antibody Assay, Virus/Ab Incubation 1 hour",[7],> 50 mg/L
same,"IC50, Neutralizing Antibody Assay, Virus/Ab Incubation 18 hour",[7],> 50 mg/L
same,"IC50, Neutralizing Antibody Assay, Virus/Ab Incubation 1 hour",[8],> 50 mg/L
same,"IC50, Neutralizing Antibody Assay, Virus/Ab Incubation 18 hour",[8],3.17 mg/L
same,"IC50, Neutralizing Antibody Assay, Virus/Ab Incubation 1 hour",[9],0.17 mg/L
same,"IC50, Neutralizing Antibody Assay, Virus/Ab Incubation 18 hour",[9],0.05 mg/L
